# Assay results from publication PMC12102759 (2025).
# B1: AMOTL2 peptide 64-79 (Angiomotin-like protein 2), 16-mer library wild type / TNKS ANK (TNKS 12 ANK repeats, residues 174-649) (parent complex)
# chain 1: QVLQQATRQEPQGQEH
# chain 2: TGVPAVSGALRELLEACRNGDVSRVKRLVDAANVNAKDMAGRKSSPLHFAAGFGRKDVVEHLLQMGANVHARDDGGLIPLHNACSFGHAEVVSLLLCQGADPNARDNWNYTPLHEAAIKGKIDVCIVLLQHGADPNIRNTDGKSALDLADPSAKAVLTGEYKKDELLEAARSGNEEKLMALLTPLNVNCHASDGRKSTPLHLAAGYNRVRIVQLLLQHGADVHAKDKGGLVPLHNACSYGHYEVTELLLKHGACVNAMDLWQFTPLHEAASKNRVEVCSLLLSHGADPTLVNCHGKSAVDMAPTPELRERLTYEFKGHSLLQAAREADLAKVKKTLALEIINFKQPQSHETALHCAVASLHPKRKQVTELLLRKGANVNEKNKDFMTPLHVAAERAHNDVMEVLHKHGAKMNALDTLGQTALHRAALAGHLQTCRLLLSYGSDPSIISLQGFTAAQMGNEAVQQILSESTPIRTSD
# B2: RNF115 peptide 69-84 (E3 ubiquitin-protein ligase RNF115), 16-mer library wild type / MDM2 SWIB (MDM2 SWIB/MDM2 domain, residues 17-125) (parent complex)
# chain 1: THFAELWGHLDHTMFF
# chain 2: SQIPASEQETLVRPKPLLLKLLKSVGAQKDTYTMKEVLFYLGQYIMTKRLYDEKQQHIVYCSNDLLGDLFGVPSFSVKEHRKIYTMIYRNLVVVNQQESSDSGTSVSEN
# Variants of: B1
# Experiment: proteomic peptide phage display deep mutational scan (ProP-PD DMS): M13 P8 16-mer library selected against immobilised GST-tagged bait for four days (rounds), NGS of the eluted pools per day and pseudo-replica; bait immobilised on MaxiSorp plates (10 µg), library pre-cleared on GST, 2 h binding at 4 °C, five washes; one round per day, days 1-4; value from days 2 and 3
row,Variant,screen value
1,chain 1 QVLQQATRSEPQGQEH [chain 1 Q9S],"0.000874 average fractional NGS count over selection days 2 and 3 (reads of this peptide / all reads for the bait, averaged over …"
2,chain 1 QVLQQATRDEPQGQEH [chain 1 Q9D],"0.00088 average fractional NGS count over selection days 2 and 3 (reads of this peptide / all reads for the bait, averaged over …"
3,chain 1 QVLGQATRQEPQGQEH [chain 1 Q4G],"0.000278 average fractional NGS count over selection days 2 and 3 (reads of this peptide / all reads for the bait, averaged over …"
4,chain 1 QVLQQATRQEPQGQIH [chain 1 E15I],"9.73e-05 average fractional NGS count over selection days 2 and 3 (reads of this peptide / all reads for the bait, averaged over …"
5,chain 1 QVLQQATRQEPQGQHH [chain 1 E15H],"0.000392 average fractional NGS count over selection days 2 and 3 (reads of this peptide / all reads for the bait, averaged over …"
6,chain 1 QVLQQLTRQEPQGQEH [chain 1 A6L],"0.000992 average fractional NGS count over selection days 2 and 3 (reads of this peptide / all reads for the bait, averaged over …"
7,chain 1 QVLQQDTRQEPQGQEH [chain 1 A6D],"0.000263 average fractional NGS count over selection days 2 and 3 (reads of this peptide / all reads for the bait, averaged over …"
8,chain 1 QVLQQFTRQEPQGQEH [chain 1 A6F],"0.00286 average fractional NGS count over selection days 2 and 3 (reads of this peptide / all reads for the bait, averaged over …"
9,chain 1 QVLQQTTRQEPQGQEH [chain 1 A6T],"0.000175 average fractional NGS count over selection days 2 and 3 (reads of this peptide / all reads for the bait, averaged over …"
10,chain 1 QVLQQQTRQEPQGQEH [chain 1 A6Q],"0.00606 average fractional NGS count over selection days 2 and 3 (reads of this peptide / all reads for the bait, averaged over …"
11,chain 1 QVNQQATRQEPQGQEH [chain 1 L3N],"0.00173 average fractional NGS count over selection days 2 and 3 (reads of this peptide / all reads for the bait, averaged over …"
12,chain 1 QVLQQATRQEPQVQEH [chain 1 G13V],"0.00137 average fractional NGS count over selection days 2 and 3 (reads of this peptide / all reads for the bait, averaged over …"
13,chain 1 QVLQQATRQEPQGAEH [chain 1 Q14A],"0.0303 average fractional NGS count over selection days 2 and 3 (reads of this peptide / all reads for the bait, averaged over …"
14,chain 1 QVLQQATRQEPQGMEH [chain 1 Q14M],"0.000951 average fractional NGS count over selection days 2 and 3 (reads of this peptide / all reads for the bait, averaged over …"
15,chain 1 QVLQQAFRQEPQGQEH [chain 1 T7F],"0.000844 average fractional NGS count over selection days 2 and 3 (reads of this peptide / all reads for the bait, averaged over …"
16,chain 1 QVLQQATRQSPQGQEH [chain 1 E10S],"0.000835 average fractional NGS count over selection days 2 and 3 (reads of this peptide / all reads for the bait, averaged over …"
17,chain 1 QVLQQATRQTPQGQEH [chain 1 E10T],"0.00297 average fractional NGS count over selection days 2 and 3 (reads of this peptide / all reads for the bait, averaged over …"
18,chain 1 QVLQQATRQPPQGQEH [chain 1 E10P],"0.00208 average fractional NGS count over selection days 2 and 3 (reads of this peptide / all reads for the bait, averaged over …"
19,chain 1 QMLQQATRQEPQGQEH [chain 1 V2M],"0.000248 average fractional NGS count over selection days 2 and 3 (reads of this peptide / all reads for the bait, averaged over …"
20,chain 1 QVLQQATRQEPAGQEH [chain 1 Q12A],"0.00119 average fractional NGS count over selection days 2 and 3 (reads of this peptide / all reads for the bait, averaged over …"
21,chain 1 QVLQQATRQEPPGQEH [chain 1 Q12P],"0.000174 average fractional NGS count over selection days 2 and 3 (reads of this peptide / all reads for the bait, averaged over …"
22,chain 1 QVLQIATRQEPQGQEH [chain 1 Q5I],"0.00183 average fractional NGS count over selection days 2 and 3 (reads of this peptide / all reads for the bait, averaged over …"
23,chain 1 QVLQQATRQEPQGQEN [chain 1 H16N],"0.00139 average fractional NGS count over selection days 2 and 3 (reads of this peptide / all reads for the bait, averaged over …"
24,chain 1 QVLQQATRQEPQGQER [chain 1 H16R],"0.00349 average fractional NGS count over selection days 2 and 3 (reads of this peptide / all reads for the bait, averaged over …"
25,chain 1 QVLQQATRQEPQGQEQ [chain 1 H16Q],"0.000195 average fractional NGS count over selection days 2 and 3 (reads of this peptide / all reads for the bait, averaged over …"

# Variants of: B2
# Experiment: as above
row,Variant,screen value
1,chain 1 D11L,"0.000447 average fractional NGS count over selection days 2 and 3 (reads of this peptide / all reads for the bait, averaged over …"
2,chain 1 D11E,"0.000686 average fractional NGS count over selection days 2 and 3 (reads of this peptide / all reads for the bait, averaged over …"
3,chain 1 D11Q,"0.000111 average fractional NGS count over selection days 2 and 3 (reads of this peptide / all reads for the bait, averaged over …"
4,chain 1 D11T,"0.000142 average fractional NGS count over selection days 2 and 3 (reads of this peptide / all reads for the bait, averaged over …"
5,chain 1 D11S,"0.00405 average fractional NGS count over selection days 2 and 3 (reads of this peptide / all reads for the bait, averaged over …"
6,chain 1 D11P,"0.000507 average fractional NGS count over selection days 2 and 3 (reads of this peptide / all reads for the bait, averaged over …"
7,chain 1 D11M,"0.000791 average fractional NGS count over selection days 2 and 3 (reads of this peptide / all reads for the bait, averaged over …"
8,chain 1 D11Y,"0.000538 average fractional NGS count over selection days 2 and 3 (reads of this peptide / all reads for the bait, averaged over …"
9,chain 1 D11A,"0.0112 average fractional NGS count over selection days 2 and 3 (reads of this peptide / all reads for the bait, averaged over …"
10,chain 1 T1Y,"0.000395 average fractional NGS count over selection days 2 and 3 (reads of this peptide / all reads for the bait, averaged over …"
